Test results published in US20190134153A1, “IMMUNOMODULATORY EFFECT OF INHALED KINASE INHIBITOR PEPTIDES IN LUNG” (MOERAE MATRIX, INC., priority 2017, published 2019).

Legend:
Test in all cases: Kinase Profiling Assay
Type in all cases: biochemical
Details in all cases: 100 μM
Arg(h) = Arg(h) (Homo sapiens, UniProt P42684)
NEK3(h) = target: T1, NEK3(h) (Homo sapiens, UniProt P51956)
T1 sequence (P51956 1-506): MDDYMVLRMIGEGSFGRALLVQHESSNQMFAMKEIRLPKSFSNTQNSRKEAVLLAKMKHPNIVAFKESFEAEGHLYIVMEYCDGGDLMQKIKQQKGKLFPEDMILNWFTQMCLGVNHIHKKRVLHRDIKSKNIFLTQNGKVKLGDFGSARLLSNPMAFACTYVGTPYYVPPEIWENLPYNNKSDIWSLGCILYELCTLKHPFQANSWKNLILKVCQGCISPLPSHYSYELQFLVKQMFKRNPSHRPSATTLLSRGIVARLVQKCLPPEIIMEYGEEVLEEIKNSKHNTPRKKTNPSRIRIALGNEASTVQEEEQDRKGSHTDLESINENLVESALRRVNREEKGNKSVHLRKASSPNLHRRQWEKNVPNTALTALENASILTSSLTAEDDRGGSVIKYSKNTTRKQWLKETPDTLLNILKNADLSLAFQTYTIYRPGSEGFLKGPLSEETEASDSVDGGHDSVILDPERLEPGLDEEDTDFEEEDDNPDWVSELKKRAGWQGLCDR

EGFR(L861Q)(h) = EGFR(L861Q)(h) (Homo sapiens, UniProt P00533, L861Q)
CK1γ3(h) = CK1γ3(h) (Homo sapiens, UniProt Q9Y6M4)
PKA(h) = PKA(h) (Homo sapiens, UniProt P17612)
ZIPK(h) = ZIPK(h) (Homo sapiens, UniProt O43293)
Sequence of ZIPK(h) (O43293 whole entry): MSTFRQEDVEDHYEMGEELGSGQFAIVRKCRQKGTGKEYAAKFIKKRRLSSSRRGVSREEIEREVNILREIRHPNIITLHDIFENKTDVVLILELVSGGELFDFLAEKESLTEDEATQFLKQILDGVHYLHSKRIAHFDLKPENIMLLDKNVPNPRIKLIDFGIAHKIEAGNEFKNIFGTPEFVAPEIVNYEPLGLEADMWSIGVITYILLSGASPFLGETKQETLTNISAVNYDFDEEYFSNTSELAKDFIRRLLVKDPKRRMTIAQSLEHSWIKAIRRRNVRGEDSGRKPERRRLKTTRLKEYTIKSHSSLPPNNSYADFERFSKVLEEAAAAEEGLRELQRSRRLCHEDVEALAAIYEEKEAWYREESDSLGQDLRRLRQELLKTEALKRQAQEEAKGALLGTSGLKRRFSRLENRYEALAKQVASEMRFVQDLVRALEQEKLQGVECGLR

PAK3(h) = PAK3(h) (Homo sapiens, UniProt O75914)
IGF-1R(h) = IGF-1R(h) (Homo sapiens, UniProt P08069)
IRR(h) = IRR(h) (Homo sapiens, UniProt P14616)
Lyn(h) = Lyn(h) (Homo sapiens, UniProt P07948)
Sequence of Lyn(h) (P07948 whole entry): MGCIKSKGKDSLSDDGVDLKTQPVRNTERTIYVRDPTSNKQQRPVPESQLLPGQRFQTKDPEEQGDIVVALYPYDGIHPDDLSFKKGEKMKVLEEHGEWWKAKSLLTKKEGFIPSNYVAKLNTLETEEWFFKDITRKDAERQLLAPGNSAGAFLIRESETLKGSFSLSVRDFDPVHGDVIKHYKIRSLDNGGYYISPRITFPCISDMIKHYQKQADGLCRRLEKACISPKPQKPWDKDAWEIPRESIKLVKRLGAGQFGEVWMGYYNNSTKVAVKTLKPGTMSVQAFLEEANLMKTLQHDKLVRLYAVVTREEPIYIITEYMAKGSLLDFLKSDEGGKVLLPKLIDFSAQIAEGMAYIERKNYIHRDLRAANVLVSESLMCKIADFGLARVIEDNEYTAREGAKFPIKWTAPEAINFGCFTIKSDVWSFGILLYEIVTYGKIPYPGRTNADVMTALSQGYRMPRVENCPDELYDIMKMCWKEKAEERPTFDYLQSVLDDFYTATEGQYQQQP

AMPKα2(h) = AMPKα2(h) (Homo sapiens, UniProt P54646)
Sequence of AMPKα2(h) (P54646 whole entry): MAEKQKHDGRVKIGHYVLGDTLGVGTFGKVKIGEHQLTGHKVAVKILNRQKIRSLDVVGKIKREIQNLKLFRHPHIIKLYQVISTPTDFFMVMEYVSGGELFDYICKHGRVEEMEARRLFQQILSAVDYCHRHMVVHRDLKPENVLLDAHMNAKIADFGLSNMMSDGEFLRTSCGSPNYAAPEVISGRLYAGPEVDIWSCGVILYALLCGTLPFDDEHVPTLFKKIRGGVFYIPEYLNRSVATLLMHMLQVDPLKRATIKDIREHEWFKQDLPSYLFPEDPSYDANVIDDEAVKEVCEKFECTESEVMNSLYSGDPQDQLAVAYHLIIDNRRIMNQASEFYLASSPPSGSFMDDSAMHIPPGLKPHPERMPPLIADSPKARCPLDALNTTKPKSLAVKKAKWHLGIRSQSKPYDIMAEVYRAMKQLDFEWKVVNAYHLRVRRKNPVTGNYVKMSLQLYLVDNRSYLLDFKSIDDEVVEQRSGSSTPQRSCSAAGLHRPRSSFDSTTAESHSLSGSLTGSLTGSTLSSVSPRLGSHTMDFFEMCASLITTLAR
Sequence of AMPKα2(h) (Q9Y478 whole entry partner): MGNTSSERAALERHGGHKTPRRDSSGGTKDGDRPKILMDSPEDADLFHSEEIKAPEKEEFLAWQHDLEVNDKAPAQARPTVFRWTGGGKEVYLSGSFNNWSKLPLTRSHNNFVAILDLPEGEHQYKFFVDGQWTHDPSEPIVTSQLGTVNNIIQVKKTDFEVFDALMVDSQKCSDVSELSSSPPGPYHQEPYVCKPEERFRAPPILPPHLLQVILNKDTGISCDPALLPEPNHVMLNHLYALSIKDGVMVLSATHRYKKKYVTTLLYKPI
Sequence of AMPKα2(h) (P54619 whole entry partner): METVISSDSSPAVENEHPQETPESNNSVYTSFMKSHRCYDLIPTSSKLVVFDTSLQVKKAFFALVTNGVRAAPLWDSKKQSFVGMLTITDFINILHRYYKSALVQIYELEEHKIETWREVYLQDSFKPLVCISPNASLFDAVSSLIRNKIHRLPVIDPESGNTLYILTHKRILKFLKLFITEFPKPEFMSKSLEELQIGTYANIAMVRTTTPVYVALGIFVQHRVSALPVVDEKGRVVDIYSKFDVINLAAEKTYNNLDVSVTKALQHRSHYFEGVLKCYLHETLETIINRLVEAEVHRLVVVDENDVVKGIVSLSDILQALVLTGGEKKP

Yes(h) = Yes(h) (Homo sapiens, UniProt P07947)
Sequence of Yes(h) (P07947 whole entry): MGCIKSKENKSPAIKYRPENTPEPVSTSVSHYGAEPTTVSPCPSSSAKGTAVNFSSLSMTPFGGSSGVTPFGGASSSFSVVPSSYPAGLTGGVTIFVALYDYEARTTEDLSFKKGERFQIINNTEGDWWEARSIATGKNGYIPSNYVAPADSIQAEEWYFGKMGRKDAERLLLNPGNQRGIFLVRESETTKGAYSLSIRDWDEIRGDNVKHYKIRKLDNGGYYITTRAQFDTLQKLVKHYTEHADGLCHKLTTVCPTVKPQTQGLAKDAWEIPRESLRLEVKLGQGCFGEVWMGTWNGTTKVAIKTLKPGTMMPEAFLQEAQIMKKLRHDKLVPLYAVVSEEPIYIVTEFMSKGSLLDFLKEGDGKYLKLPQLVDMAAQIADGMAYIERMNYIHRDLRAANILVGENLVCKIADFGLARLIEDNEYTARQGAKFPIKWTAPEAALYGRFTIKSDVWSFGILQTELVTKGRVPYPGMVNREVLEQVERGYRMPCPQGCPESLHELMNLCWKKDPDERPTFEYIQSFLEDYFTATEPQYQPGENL

GRK5(h) = GRK5(h) (Homo sapiens, UniProt P34947)
MAPK1(h) = MAPK1(h) (Homo sapiens, UniProt P27361)
Sequence of MAPK1(h) (P27361 whole entry): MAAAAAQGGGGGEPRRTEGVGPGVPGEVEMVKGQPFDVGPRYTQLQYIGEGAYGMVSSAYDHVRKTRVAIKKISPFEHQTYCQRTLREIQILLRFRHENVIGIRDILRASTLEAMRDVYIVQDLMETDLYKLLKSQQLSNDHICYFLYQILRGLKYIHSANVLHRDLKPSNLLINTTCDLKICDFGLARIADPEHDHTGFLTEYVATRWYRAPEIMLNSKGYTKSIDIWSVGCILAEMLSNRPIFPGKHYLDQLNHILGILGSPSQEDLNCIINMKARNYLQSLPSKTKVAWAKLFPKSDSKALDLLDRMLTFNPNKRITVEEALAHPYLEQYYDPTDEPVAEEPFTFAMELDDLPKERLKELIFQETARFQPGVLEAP

CK2α2(h) = CK2α2(h) (Homo sapiens, UniProt P19784)
JNK1α1(h) = JNK1α1(h) (Homo sapiens, UniProt P45983)
Flt3(D835Y)(h) = Flt3(D835Y)(h) (Homo sapiens, UniProt P36888, D835Y)
MST2(h) = target: T2, MST2(h) (Homo sapiens, UniProt Q13188)
T2 sequence (Q13188 1-491): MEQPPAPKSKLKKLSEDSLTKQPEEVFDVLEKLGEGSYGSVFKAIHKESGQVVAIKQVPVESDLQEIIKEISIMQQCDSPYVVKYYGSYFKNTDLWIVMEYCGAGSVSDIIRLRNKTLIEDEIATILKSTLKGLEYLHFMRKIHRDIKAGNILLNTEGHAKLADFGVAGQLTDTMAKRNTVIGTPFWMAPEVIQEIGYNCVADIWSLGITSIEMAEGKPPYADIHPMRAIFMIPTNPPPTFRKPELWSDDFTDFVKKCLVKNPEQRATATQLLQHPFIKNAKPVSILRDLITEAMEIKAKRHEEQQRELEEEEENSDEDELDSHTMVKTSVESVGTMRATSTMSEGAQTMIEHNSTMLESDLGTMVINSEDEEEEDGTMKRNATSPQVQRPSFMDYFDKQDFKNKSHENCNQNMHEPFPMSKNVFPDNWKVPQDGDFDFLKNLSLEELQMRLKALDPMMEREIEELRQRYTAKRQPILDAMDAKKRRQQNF

CDK3/cyclinE(h) = CDK3/cyclinE(h) (Homo sapiens, UniProt Q00526)
Sequence of CDK3/cyclinE(h) (Q00526 whole entry): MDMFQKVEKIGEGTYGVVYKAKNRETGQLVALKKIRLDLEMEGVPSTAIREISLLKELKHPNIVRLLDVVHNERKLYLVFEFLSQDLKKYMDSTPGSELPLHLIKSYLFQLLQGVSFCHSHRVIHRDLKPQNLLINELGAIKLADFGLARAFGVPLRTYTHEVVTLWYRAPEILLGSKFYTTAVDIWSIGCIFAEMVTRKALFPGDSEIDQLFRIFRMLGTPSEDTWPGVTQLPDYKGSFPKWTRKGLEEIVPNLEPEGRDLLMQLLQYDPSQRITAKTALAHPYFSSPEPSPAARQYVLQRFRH
Sequence of CDK3/cyclinE(h) (P24864 whole entry partner): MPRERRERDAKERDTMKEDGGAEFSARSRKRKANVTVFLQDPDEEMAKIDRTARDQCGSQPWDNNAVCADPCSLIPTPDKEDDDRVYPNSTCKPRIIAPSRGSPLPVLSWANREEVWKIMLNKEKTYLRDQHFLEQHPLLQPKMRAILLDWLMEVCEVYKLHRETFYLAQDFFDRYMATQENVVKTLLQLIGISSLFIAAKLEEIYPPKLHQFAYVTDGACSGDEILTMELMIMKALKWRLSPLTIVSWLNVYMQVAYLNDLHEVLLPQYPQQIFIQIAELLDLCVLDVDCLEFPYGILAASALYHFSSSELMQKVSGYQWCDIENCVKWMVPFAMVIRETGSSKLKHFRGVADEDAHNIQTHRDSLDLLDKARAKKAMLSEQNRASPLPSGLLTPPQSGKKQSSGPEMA

PDGFRα(D842V)(h) = PDGFRα(D842V)(h) (Homo sapiens, UniProt P16234, D842V)
GSK3α(h) = GSK3α(h) (Homo sapiens, UniProt P49840)
Sequence of GSK3α(h) (P49840 whole entry): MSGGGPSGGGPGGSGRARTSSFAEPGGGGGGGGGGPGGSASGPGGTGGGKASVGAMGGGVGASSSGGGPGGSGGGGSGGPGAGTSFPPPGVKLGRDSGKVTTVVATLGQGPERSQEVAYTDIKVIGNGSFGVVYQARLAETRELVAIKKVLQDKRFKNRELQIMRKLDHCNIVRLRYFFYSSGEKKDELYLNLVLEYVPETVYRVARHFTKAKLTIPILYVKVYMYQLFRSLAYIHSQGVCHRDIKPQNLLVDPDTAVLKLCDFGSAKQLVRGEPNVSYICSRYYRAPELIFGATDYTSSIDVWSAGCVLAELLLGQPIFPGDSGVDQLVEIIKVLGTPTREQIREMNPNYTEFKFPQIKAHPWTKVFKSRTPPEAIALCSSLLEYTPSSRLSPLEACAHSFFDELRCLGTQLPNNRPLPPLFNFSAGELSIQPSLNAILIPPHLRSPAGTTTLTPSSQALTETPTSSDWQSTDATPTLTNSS

cKit(V560G)(h) = cKit(V560G)(h) (Homo sapiens, UniProt P10721, V560G)
CHK2(h) = CHK2(h) (Homo sapiens, UniProt O96017)
Sequence of CHK2(h) (O96017 whole entry): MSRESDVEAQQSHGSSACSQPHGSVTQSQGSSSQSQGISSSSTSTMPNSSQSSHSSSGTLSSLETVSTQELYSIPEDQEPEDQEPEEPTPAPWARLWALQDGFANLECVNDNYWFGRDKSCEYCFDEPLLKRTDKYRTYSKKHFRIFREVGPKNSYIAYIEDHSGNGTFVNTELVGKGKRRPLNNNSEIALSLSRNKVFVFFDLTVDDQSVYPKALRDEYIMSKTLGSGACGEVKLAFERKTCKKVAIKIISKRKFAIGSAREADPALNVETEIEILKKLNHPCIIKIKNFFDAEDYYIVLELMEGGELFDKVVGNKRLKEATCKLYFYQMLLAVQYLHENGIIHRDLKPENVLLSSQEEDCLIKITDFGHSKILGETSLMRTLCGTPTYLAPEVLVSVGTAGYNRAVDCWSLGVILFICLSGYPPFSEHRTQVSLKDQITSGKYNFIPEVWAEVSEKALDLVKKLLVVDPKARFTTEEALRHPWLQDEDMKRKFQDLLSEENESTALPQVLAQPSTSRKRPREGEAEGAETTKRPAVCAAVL

MRCKα(h) = MRCKα(h) (Homo sapiens, UniProt Q5VT25)
HIPK3(h) = HIPK3(h) (Homo sapiens, UniProt Q9H422)
Lck(h) = Lck(h) (Homo sapiens, UniProt P06239)
Abl (H396P) (h) = Abl (H396P) (h) (Homo sapiens, UniProt P00519, H396P)

YARAAARQARAKALNRQLGVA [MMI-0200]
% activity (Arg(h)): 82% | % activity (NEK3(h)): 100% | % activity (EGFR(L861Q)(h)): 74% | % activity (CK1γ3(h)): 96% | % activity (PKA(h)): 110% | % activity (ZIPK(h)): 67% | % activity (PAK3(h)): 50% | % activity (IGF-1R(h)): 49% | % activity (IRR(h)): 69% | % activity (Lyn(h)): 98% | % activity (AMPKα2(h)): 88% | % activity (Yes(h)): 93% | % activity (GRK5(h)): 135% | % activity (MAPK1(h)): 97% | % activity (CK2α2(h)): 88%

KAFAKLAARLYRKALARQLGVAA [MMI-0400]
% activity (Arg(h)): 84% | % activity (NEK3(h)): 85% | % activity (EGFR(L861Q)(h)): 22% | % activity (JNK1α1(h)): 98% | % activity (Flt3(D835Y)(h)): 71% | % activity (MST2(h)): 11% | % activity (ZIPK(h)): 13% | % activity (CDK3/cyclinE(h)): 92% | % activity (IGF-1R(h)): 90% | % activity (IRR(h)): 8% | % activity (PDGFRα(D842V)(h)): 118% | % activity (Lyn(h)): 3% | % activity (AMPKα2(h)): 58% | % activity (Yes(h)): 14% | % activity (GSK3α(h)): 164% | % activity (cKit(V560G)(h)): 124% | % activity (CHK2(h)): 54% | % activity (GRK5(h)): 131% | % activity (MAPK1(h)): 100% | % activity (CK2α2(h)): 96% | % activity (MRCKα(h)): 97%

HRRIKAWLKKIKALARQLGVAA [MMI-0500]
% activity (Arg(h)): 22% | % activity (NEK3(h)): 20% | % activity (EGFR(L861Q)(h)): 15% | % activity (PKA(h)): 118% | % activity (Flt3(D835Y)(h)): 65% | % activity (MST2(h)): 2% | % activity (ZIPK(h)): 1% | % activity (CDK3/cyclinE(h)): 8% | % activity (HIPK3(h)): 85% | % activity (Lck(h)): 359% | % activity (IRR(h)): 10% | % activity (Abl (H396P) (h)): 51% | % activity (PDGFRα(D842V)(h)): 170% | % activity (Lyn(h)): 31% | % activity (AMPKα2(h)): 9% | % activity (GSK3α(h)): 175% | % activity (cKit(V560G)(h)): 198% | % activity (CHK2(h)): 13% | % activity (MRCKα(h)): 5%

FAKLAARLYRKALARQLGVAA [MMI-0300]
% activity (Arg(h)): 72% | % activity (NEK3(h)): 92% | % activity (EGFR(L861Q)(h)): 25% | % activity (JNK1α1(h)): 97% | % activity (CK1γ3(h)): 125% | % activity (Flt3(D835Y)(h)): 80% | % activity (MST2(h)): 19% | % activity (ZIPK(h)): 28% | % activity (PAK3(h)): 140% | % activity (CDK3/cyclinE(h)): 94% | % activity (HIPK3(h)): 93% | % activity (Lck(h)): −2% | % activity (IRR(h)): 8% | % activity (Abl (H396P) (h)): 101% | % activity (Lyn(h)): 69% | % activity (AMPKα2(h)): 54% | % activity (Yes(h)): 67% | % activity (GSK3α(h)): 157% | % activity (CHK2(h)): 66%
